Molecular target: T1, MASP-1 (MBL-associated serine protease 1) (human, UniProt P48740 20-699)
T1 sequence (looked up): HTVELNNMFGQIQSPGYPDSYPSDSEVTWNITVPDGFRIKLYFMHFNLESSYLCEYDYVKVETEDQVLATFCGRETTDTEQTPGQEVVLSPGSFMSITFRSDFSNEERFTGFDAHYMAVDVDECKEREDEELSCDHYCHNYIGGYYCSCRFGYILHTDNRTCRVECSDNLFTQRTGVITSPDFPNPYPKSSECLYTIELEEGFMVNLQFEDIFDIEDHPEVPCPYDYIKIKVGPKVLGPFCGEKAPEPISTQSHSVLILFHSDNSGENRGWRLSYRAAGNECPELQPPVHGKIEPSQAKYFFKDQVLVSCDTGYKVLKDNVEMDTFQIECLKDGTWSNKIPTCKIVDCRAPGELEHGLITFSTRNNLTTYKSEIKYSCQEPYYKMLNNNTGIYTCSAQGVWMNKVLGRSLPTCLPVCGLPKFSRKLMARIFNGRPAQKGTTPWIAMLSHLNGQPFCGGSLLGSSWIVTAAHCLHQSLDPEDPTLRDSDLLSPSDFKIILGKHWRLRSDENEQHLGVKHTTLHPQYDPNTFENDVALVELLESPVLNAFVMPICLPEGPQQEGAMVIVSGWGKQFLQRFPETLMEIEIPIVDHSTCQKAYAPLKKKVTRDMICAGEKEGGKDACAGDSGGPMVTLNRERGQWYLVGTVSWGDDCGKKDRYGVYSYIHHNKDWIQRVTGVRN
Assay: co-capture on anti-MASP-1-coated wells, eluate blotted with anti-pMASP-3

binding result: no binding
B1: mannan binding lectin-associated serine protease 3 (MASP-3), natural protein from human plasma/serum (enzyme)
chain: HTVELNNMFGQIQSPGYPDSYPSDSEVTWNITVPDGFRIKLYFMHFNLESSYLCEYDYVKVETEDQVLATFCGRETTDTEQTPGQEVVLSPGSFMSITFRSDFSNEERFTGFDAHYMAVDVDECKEREDEELSCDHYCHNYIGGYYCSCRFGYILHTDNRTCRVECSDNLFTQRTGVITSPDFPNPYPKSSECLYTIELEEGFMVNLQFEDIFDIQDHPEVPCPYDYIKIKVGPKVLGPFCGEKAPEPISTQSHSVLILFHSDNSAENRGWRLSYRAAGNECPELQPPVHGKIEPSQAKYFFKDQVLVSCDTGYKVLKDNVEMDTFQIECLKDGTWSNKIPTCKIVDCRAPGELEHGLITFSTRNNLTTYKSEIKYSCQEPYYKMLNNNTGIYTCSAQGVWMNKVLGRSLPTCLPECGQPSRSLPSLVKRIIGGRNAEPGLFPWQALIVVEDTSRVPNDKWFGSGALLSASWILTAAHVLRSQRRDTTVIPVSKEHVTVYLGLHDVRDKSGAVNSSAARVVLHPDFNIQNYNHDIALVQLQEPVPLGPHVMPVCLPRLEPEGPAPHMLGLVAGWGISNPNVTVDEIISSGTRTLSDVLQYVKLPVVPHAECKTSYESRSGNYSVTENMFCAGYYEGGKDTCLGDSGGAFVIFDDLSQRWVVQGLVSWGGPEECGSKQVYGVYTKVSNYVDWVWEQMGLPQSVVEPQVER
notes: Natural protein in lectin preparations, MBL complexes or serum; On reducing blots only the B chain is seen; also called MBL-associated serine protease-3; lectin associated serine protease 110
